Like-named read-outs stand apart in the source and are kept apart here.
Columns and labels:
Assay in all cases: competition
Fis [1] = molecular target: T1, Fis (Escherichia coli, UniProt P0A6R3 1-98)
Fis [2] = molecular target: T1, Fis; remark: listed apart in the source
Fis [3] = molecular target: T1, Fis; remark: listed apart in the source

T1 sequence (P0A6R3 whole entry): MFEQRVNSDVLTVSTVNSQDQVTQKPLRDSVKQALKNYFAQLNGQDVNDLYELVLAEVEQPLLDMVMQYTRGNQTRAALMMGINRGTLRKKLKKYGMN

B1: F1 (dsDNA)
DNA 1: AAATTTGTTTGAATTTTGAGCAAATTT
DNA 2: AAATTTGCTCAAAATTCAAACAAATTT
binding result (Fis [1]): binds

B2: F28 (dsDNA)
DNA 1: AAATTTGTTTGAGCGTTGAGCAAATTT
DNA 2: AAATTTGCTCAACGCTCAAACAAATTT
binding result (Fis [2]): binds

B3: F29 (dsDNA)
DNA 1: AAATTTGTTTGGGCGCTGAGCAAATTT
DNA 2: AAATTTGCTCAGCGCCCAAACAAATTT
binding result (Fis [3]): binds

From paper PMC4579036
